To fix the notation:
B1: POU domain, class 2, transcription factor 3, residues 186 to 260; numbered along this chain, Q9UKI9 (parent)
chain: SDLEELEKFAKTFKQRRIKLGFTQGDVGLAMGKLYGNDFSQTTISRFEALNLSFKNMCKLKPLLEKWLNDAESSP

± gives the uncertainty stated by the source.

In this data set the parent is B1. Kind of data set: abundance fitness (aPCA) (normalised: wild type 0, dead -1); higher = more abundant; growth selection in yeast, the domain comes from the species named. Conditions: Homo sapiens.
On to SDLEELEKFAKTFKQRRIKLGFTQGDVGLAMGKLYGNDFSQTTISRFEALNLSFKNMCKLKPLLEKWLNSAESSP [D70S], for which the abundance fitness is -0.063 ± 0.038.

With SDLEELEKFAKTFKQRRIKLGFTQGDVGLAMGKLYGNDFSQTTISRFEALNLSFKNMCKLKPLLEKWLNRAESSP [D70R], the abundance fitness is -0.049 ± 0.031.

Turning to SDLEELEKFAKTFKQRRIKLGFTQGDVGLAMGKLYGNDFSQTTISRFEALNLSFKNMCKLKPLLEKWLNQAESSP [D70Q], the abundance fitness came to 0.003 ± 0.054.

On to SDLEELEKFAKTFKQRRIKLGFTQGDVGLAMGKLYGNDFSQTTISRFEALNLSFKNMCKLKPLLEKWLNPAESSP [D70P], for which the abundance fitness is -0.405 ± 0.064.

Regarding SDLEELEKFAKTFKQRRIKLGFTQGDVGLAMGKLYGNDFSQTTISRFEALNLSFKNMCKLKPLLEKWLNTAESSP [D70T], the abundance fitness is 0.082 ± 0.064.

For the variant SDLEELEKFAKTFKQRRIKLGFTQGDVGLAMGKLYGNDFSQTTISRFEALNLSFKNMCKLKPLLEKWLNEAESSP [D70E], the abundance fitness was determined as 0.027 ± 0.043.

As to SDLEELEKFAKTFKQRRIKLGFTQGDVGLAMGKLYGNDFSQTTISRFEALNLSFKNMCKLKPLLEKWLNFAESSP [D70F], the abundance fitness was -0.059 ± 0.11.

As for SDLEELEKFAKTFKQRRIKLGFTQGDVGLAMGKLYGNDFSQTTISRFEALNLSFKNMCKLKPLLEKWLNMAESSP [D70M], the abundance fitness is -0.103 ± 0.058.

With SDLEELEKFAKTFKQRRIKLGFTQGDVGLAMGKLYGNDFSQTTISRFEALNLSFKNMCKLKPLLEKWLNIAESSP [D70I], the abundance fitness was -0.02 ± 0.062.

In the case of SDLEELEKFAKTFKQRRIKLGFTQGDVGLAMGKLYGNDFSQTTISRFEALNLSFKNMCKLKPLLEKWLNNAESSP [D70N], the abundance fitness is -0.066 ± 0.12.

In the case of SDLEELEKFAKTFKQRRIKLGFTQGDVGLAMGKLYGNDFSQTTISRFEALNLSFKNMCKLKPLLEKWLNVAESSP [D70V], the abundance fitness was -0.096 ± 0.036.

SDLEELEKFAKTFKQRRIKLGFTQGDVGLAMGKLYGNDFSQTTISRFEALNLSFKNMCKLKPLLEKWLNCAESSP [D70C]: the abundance fitness is -0.201 ± 0.072.

As for SDLEELEKFAKTFKQRRIKLGFTQGDVGLAMGKLYGNDFSQTTISRFEALNLSFKNMCKLKPLLEKWLNHAESSP [D70H], the abundance fitness is -0.131 ± 0.15.

Consider SDLEELEKFAKTFKQRRIKLGFTQGDVGLAMGKLYGNDFSQTTISRFEALNLSFKNMCKLKPLLEKWLNGAESSP [D70G], for which the abundance fitness is -0.006 ± 0.031.

Regarding SDLEELEKFAKTFKQRRIKLGFTQGDVGLAMGKLYGNDFSQTTISRFEALNLSFKNMCKLKPLLEKWYNDAESSP [L68Y], the abundance fitness is -0.298 ± 0.074.

Turning to SDLEELEKFAKTFKQRRIKLGFTQGDVGLAMGKLYGNDFSQTTISRFEALNLSFKNMCKLKPLLEKWSNDAESSP [L68S], the abundance fitness is -0.285 ± 0.046.

For SDLEELEKFAKTFKQRRIKLGFTQGDVGLAMGKLYGNDFSQTTISRFEALNLSFKNMCKLKPLLEKWTNDAESSP [L68T], the abundance fitness is -0.317 ± 0.068.

Turning to SDLEELEKFAKTFKQRRIKLGFTQGDVGLAMGKLYGNDFSQTTISRFEALNLSFKNMCKLKPLLEKWWNDAESSP [L68W], the abundance fitness is -0.43 ± 0.049.

With SDLEELEKFAKTFKQRRIKLGFTQGDVGLAMGKLYGNDFSQTTISRFEALNLSFKNMCKLKPLLEKWVNDAESSP [L68V], the abundance fitness is -0.052 ± 0.037.

SDLEELEKFAKTFKQRRIKLGFTQGDVGLAMGKLYGNDFSQTTISRFEALNLSFKNMCKLKPLLEKWLNDMESSP [A71M]: the abundance fitness is -0.017 ± 0.052.

Take SDLEELEKFAKTFKQRRIKLGFTQGDVGLAMGKLYGNDFSQTTISRFEALNLSFKNMCKLKPLLEKWLNDQESSP [A71Q]: the abundance fitness worked out at 0.036 ± 0.054.

In the case of SDLEELEKFAKTFKQRRIKLGFTQGDVGLAMGKLYGNDFSQTTISRFEALNLSFKNMCKLKPLLEKWLNDKESSP [A71K], the abundance fitness came to 0.022 ± 0.054.

Take SDLEELEKFAKTFKQRRIKLGFTQGDVGLAMGKLYGNDFSQTTISRFEALNLSFKNMCKLKPLLEKWLNDHESSP [A71H]: the abundance fitness was found to be 0.047 ± 0.066.

Turning to SDLEELEKFAKTFKQRRIKLGFTQGDVGLAMGKLYGNDFSQTTISRFEALNLSFKNMCKLKPLLEKWLNDNESSP [A71N], the abundance fitness was 0.093 ± 0.13.

SDLEELEKFAKTFKQRRIKLGFTQGDVGLAMGKLYGNDFSQTTISRFEALNLSFKNMCKLKPLLEKWLNDRESSP [A71R]: the abundance fitness is -0.025 ± 0.03.

SDLEELEKFAKTFKQRRIKLGFTQGDVGLAMGKLYGNDFSQTTISRFEALNLSFKNMCKLKPLLEKWLNDYESSP [A71Y]: the abundance fitness is -0.271 ± 0.14.

For the variant SDLEELEKFAKTFKQRRIKLGFTQGDVGLAMGKLYGNDFSQTTISRFEALNLSFKNMCKLKPLLEKWLNDCESSP [A71C], the abundance fitness was -0.169 ± 0.073.

Take SDLEELEKFAKTFKQRRIKLGFTQGDVGLAMGKLYGNDFSQTTISRFEALNLSFKNMCKLKPLLEKWLNDSESSP [A71S]: the abundance fitness was -0.059 ± 0.042.

SDLEELEKFAKTFKQRRIKLGFTQGDVGLAMGKLYGNDFSQTTISRFEALNLSFKNMCKLKPLLEKWLNDVESSP [A71V]: the abundance fitness was 0.01 ± 0.038.

As for SDLEELEKFAKTFKQRRIKLGFTQGDVGLAMGKLYGNDFSQTTISRFEALNLSFKNMCKLKPLLEKWLNDIESSP [A71I], the abundance fitness was -0.074 ± 0.16.

As to SDLEELEKFAKTFKQRRIKLGFTQGDVGLAMGKLYGNDFSQTTISRFEALNLSFKNMCKLKPLLEKWLNDLESSP [A71L], the abundance fitness was 0.017 ± 0.035.

Take SDLEELEKFAKTFKQRRIKLGFTQGDVGLAMGKLYGNDFSQTTISRFEALNLSFKNMCKLKPLLEKWLNDDESSP [A71D]: the abundance fitness is -0.322 ± 0.063.

On to SDLEELEKFAKTFKQRRIKLGFTQGDVGLAMGKLYGNDFSQTTISRFEALNLSFKNMCKLKPLLEKWLNDEESSP [A71E], for which the abundance fitness was -0.01 ± 0.042.

Take SDLEELEKFAKTFKQRRIKLGFTQGDVGLAMGKLYGNDFSQTTISRFEALNLSFKNMCKLKPLLEKWLNDWESSP [A71W]: the abundance fitness was -0.076 ± 0.039.

For the variant SDLEELEKFAKTFKQRRIKLGFTQGDVGLAMGKLYGNDFSQTTISRFEALNLSFKNMCKLKPLLEKWLNDGESSP [A71G], the abundance fitness is -0.156 ± 0.033.

Turning to SDLEELEKFAKTFKQRRIKLGFTQGDVGLAMGKLYGNDFSQTTISRFEALNLSFKNMCKLKPLLEKWLNDPESSP [A71P], the abundance fitness was -0.067 ± 0.067.

With SDLEELEKFAKTFKQRRIKLGFTQGDVGLAMGKLYGNDFSQTTISRFEALNLSFKNMCKLKPLLEKWLNDTESSP [A71T], the abundance fitness was -0.005 ± 0.06.

Values taken from the Human Domainome abundance scans (Beltran et al. 2025).
